The source of these data is US20060003330A1, “Streptococcus pneumoniae pbp2x mini-protein and uses thereof” (COMMISSARIAT A L'ENERGIE ATOMIQUE CENTRE NATIONAL DE LA …, priority 2002, published 2006).

This data set can be described thus: Solubility of purified mini-PBP2x (concentration without precipitating). The class given is physicochemical. As to conditions: purified protein.

B1: Mini-PBP2x: Modified recombinant protein derived from PBP2x of β-lactam-sensitive S. pneumoniae strain R6, with deletions in the n-PB domain replaced by Gly linkers (protein, listed as Streptococcus pneumoniae)
chain: GSGAKRGTIYDRNGVPIAEDATSGGPNRSYPNGQFASSFIGGGMESSLNSILAGGGGDGKDVYTTISSPLQSFMETQMDAFQEKVKGKYMTATLVSAKTGEILATTQRPTFDADTKEGITEDFVWRDILYQSNYEPGSTMKVMMLAAAIDNNTFPGGEVFNSSELKIADATIRDWDVNEGLTGGRTMTFSQGFAHSSNVGMTLLEQKMGDATWLDYLNRFKFGVPTRFGLTDEYAGQLPADNIVNIAQSSFGQGISVTQTQMIRAFTAIANDGVMLEPKFISAIYDPNDQTARKSQKEIVGNPVSKDAASLTRTNMVLVGTDPVYGTMYNHSTGKPTVTVPGQNVALKSGTAQIADEKNGGYLVGLTDYIFSAVSMSPAENPDFILYVTVQQPEHYSGIQLGEFANPILERASAMKDSLNLQTTAKALEQVSQQSPYPMPSVKDISPGDLAEELRRNLVQPIVVGTGTKIKNSSAEEGKNLAPNQQVLILSDKAEEVPDMYGWTKETAETLAKWLNIELEFQGSGSTVQKQDVRANTAIKDIKKITLTLGD
Take B1: the “solubility (can be concentrated without precipitating)” value is at least 15 mg/mL.
